Experiments:
[1] = biological target: BBMV's from FAW (brush border membrane vesicle proteins of Spodoptera frugiperda larval midgut); experiment: heterologous competition: unlabeled Cry1Be against 0.5 nM 125I Cry1Da on FAW BBMV's (the sites that Cry1Da binds, not Cry1Be's own sites)
[2] = biological target: BBMV's from FAW (brush border membrane vesicle proteins of Spodoptera frugiperda larval midgut); experiment: homologous competition: unlabeled Cry1Be displacing 0.5 nM 125I Cry1Be from FAW BBMV's
[3] = biological target: BBMV's from FAW (brush border membrane vesicle proteins of Spodoptera frugiperda larval midgut); experiment: heterologous competition: 1,000 nM unlabeled Cry1Da against 0.5 nM 125I Cry1Be on FAW BBMV's (the sites that Cry1Be binds)
[4] = biological target: BBMV's from FAW (brush border membrane vesicle proteins of Spodoptera frugiperda larval midgut); experiment: homologous competition: unlabeled Cry1Da displacing 0.5 nM 125I Cry1Da from FAW BBMV's

| Substance | IC50 [1] [nM] | IC50 [2] [nM] | percent displacement of 125I Cry1Be [3] [%] | IC50 [4] [nM] |
| --- | --- | --- | --- | --- |
| Cry1Be (unlabeled, truncated Cry toxin) (from UniProt O85805 35-641) (ligand) | > 1000 | 2 | – | – |
| Cry1Da (unlabeled, truncated Cry toxin) (from UniProt P19415 28-594) (ligand) | – | – | < 50 | 1.5 |

Source: patent publication US20120331590A1
